According to PMC8113450:

Target: wild-type human Elp123 sub-complex (hElp123WT) (human) (UniProt O95163)
Assay: SEC; gel filtration of purified hElp123 on Superose 6 Increase 10/300 GL; 20 mM HEPES, 150 mM NaCl, 5 mM DTT, pH 8.0; Elp1-Elp2-Elp3 trimer to dimer of trimers

stoichiometry N: 2
Substance: wild-type human Elp123 sub-complex (hElp123WT), O95163 1-1332; Q6IA86 1-826; Q9H9T3 1-547
